± gives the uncertainty stated by the source.

First the molecules themselves.
B1: KAT8 regulatory NSL complex subunit 2, residues 28 to 91; numbered along this chain, Q9H9L4 (parent)
chain: CAFTHRPCSHPRLEGQEFCIKHILEDKNAPFKQCSYISTKNGKRCPNAAPKPEKKDGVSFCAEH

This data set covers variants of B1. Description: abundance fitness (aPCA) (normalised: wild type 0, dead -1); higher = more abundant; growth selection in yeast, the domain comes from the species named. As to conditions: Homo sapiens.
As to CAFTHRPCSHPRLEGQEFCIKHILEDKNAPFKQCSYPSTKNGKRCPNAAPKPEKKDGVSFCAEH, the abundance fitness is -0.142 ± 0.079.
Then CAFTHRPCSHPRLEGQEFCIKHILEDKNAPFKQCSYISTKNFKRCPNAAPKPEKKDGVSFCAEH, with -0.22 ± 0.097; and CAFTHRPCSHPRLEGQEFCIKHILEDKNAPFKQCSYISTKNLKRCPNAAPKPEKKDGVSFCAEH, with -0.125 ± 0.052.
In the case of CAFTHRPCSHPRLEGQEFCIKHILEDKNAMFKQCSYISTKNGKRCPNAAPKPEKKDGVSFCAEH, the abundance fitness was -0.261 ± 0.084.
To CAFTHRPCSHPRLEGQEFCIKHILEDKNAFFKQCSYISTKNGKRCPNAAPKPEKKDGVSFCAEH belongs -0.368 ± 0.067.
Then CAFTHRPCSHPMLEGQEFCIKHILEDKNAPFKQCSYISTKNGKRCPNAAPKPEKKDGVSFCAEH, with -0.47 ± 0.18; and CAFTHRPCSHPDLEGQEFCIKHILEDKNAPFKQCSYISTKNGKRCPNAAPKPEKKDGVSFCAEH, with -0.93 ± 0.22.
On to CAFTHRPCSHPRLEGQEFCIKHDLEDKNAPFKQCSYISTKNGKRCPNAAPKPEKKDGVSFCAEH, for which the abundance fitness is -0.35 ± 0.15.
As to CAFTHRPCSHPRLEGQEFCIKHMLEDKNAPFKQCSYISTKNGKRCPNAAPKPEKKDGVSFCAEH, the abundance fitness is -0.204 ± 0.065.
To CAFTHRPCSHPRLEGQEFCIKWILEDKNAPFKQCSYISTKNGKRCPNAAPKPEKKDGVSFCAEH belongs -1.4 ± 0.2.
Then CAFTHRPCSHPRLEGQEFCIKCILEDKNAPFKQCSYISTKNGKRCPNAAPKPEKKDGVSFCAEH, with -0.383 ± 0.13; and CAFTHRPCSHPRLEGQEFCIKNILEDKNAPFKQCSYISTKNGKRCPNAAPKPEKKDGVSFCAEH, with -0.768 ± 0.12; and CAWTHRPCSHPRLEGQEFCIKHILEDKNAPFKQCSYISTKNGKRCPNAAPKPEKKDGVSFCAEH, with -0.161 ± 0.061.
To CANTHRPCSHPRLEGQEFCIKHILEDKNAPFKQCSYISTKNGKRCPNAAPKPEKKDGVSFCAEH belongs -0.312 ± 0.1; to CATTHRPCSHPRLEGQEFCIKHILEDKNAPFKQCSYISTKNGKRCPNAAPKPEKKDGVSFCAEH, -0.083 ± 0.068.
On to CAFTHRPCSHPRLEGQEFCIKHILEDKNAPFKQCSYISTKNGKRCPNAAPKPEKKDGQSFCAEH, for which the abundance fitness is 0.019 ± 0.12.
Then CAFTHRPCSHPRLEGQEFCIKHILEDKNAPFKQCSYISTKNGKRCPNAAPKPEKKDGLSFCAEH, with -0.046 ± 0.062; and CAFTHRPCSHPRLEGQEFCIKHILEDKNAPFKQCSYISTKNGKRCPNAAPKPEKKDGDSFCAEH, with 0.009 ± 0.093.
To CAFTHRPCSHPRLEGQEFCIKHILEDKNAPFKQCSYISTKNGKFCPNAAPKPEKKDGVSFCAEH belongs -0.144 ± 0.089.
To CAFTHRPCSHPRLEGQEFCIKHILEDKNAPFKQCSYISTKNGKCCPNAAPKPEKKDGVSFCAEH belongs -0.026 ± 0.071.
In the case of CAFTHRPCSHPRLEGQEFCIKHILEDKNAPFKQCSYISTKNGKRCPNAAPKPEKKPGVSFCAEH, the abundance fitness was -0.096 ± 0.074.
Then CAFTHRPCSHPRLEGQEFCIKHILEDKNAPFKQCSYISTKNGKRCPNAAPKPEKKYGVSFCAEH, with -0.148 ± 0.068; and CAFTHRPCSHPRLEGQEFCIKHILEDKNAPFKQCSYISTKNGKRCPNAAPKPEKKRGVSFCAEH, with -0.063 ± 0.086; and CAFTHRPCSHPRLEGQEFCIKHILEDKNAPNKQCSYISTKNGKRCPNAAPKPEKKDGVSFCAEH, with -0.323 ± 0.094.
Then CAFTHRPCSHPRLEGQEFCIKHILEDKNAPKKQCSYISTKNGKRCPNAAPKPEKKDGVSFCAEH, with -0.195 ± 0.068.
Then CAFFHRPCSHPRLEGQEFCIKHILEDKNAPFKQCSYISTKNGKRCPNAAPKPEKKDGVSFCAEH, with -0.181 ± 0.14; and CAFYHRPCSHPRLEGQEFCIKHILEDKNAPFKQCSYISTKNGKRCPNAAPKPEKKDGVSFCAEH, with -0.15 ± 0.14; and CAFSHRPCSHPRLEGQEFCIKHILEDKNAPFKQCSYISTKNGKRCPNAAPKPEKKDGVSFCAEH, with -0.193 ± 0.081.
For CAFTHRPCSHPRLEGQEFCIKHILEDKNAPFKQCSYISTFNGKRCPNAAPKPEKKDGVSFCAEH, the abundance fitness was -0.037 ± 0.23.
Then CAFTHRPCSHPRLEGQEFCIKHILEDKNAPFKQCSYISTLNGKRCPNAAPKPEKKDGVSFCAEH, with 0.184 ± 0.32.
Then CAFTHRPCSHPRLEGQEFCIKHILEDKNAPFKQCSYISTWNGKRCPNAAPKPEKKDGVSFCAEH, with -0.401 ± 0.38.
Regarding CAFTHRPCSHPRLEGQEFCIKHILEDKNAPFKQCSYISTKNGKRCPKAAPKPEKKDGVSFCAEH, the abundance fitness is -0.076 ± 0.067.
Take CAFTHRPCSHPRLEGQEFCIKHILEDKNAPFKQCSYISTKNGKRCPNAAPPPEKKDGVSFCAEH: the abundance fitness is -0.109 ± 0.08.
Then CAFTHRPCSHPRLEGQEFCIKHILFDKNAPFKQCSYISTKNGKRCPNAAPKPEKKDGVSFCAEH, with -0.065 ± 0.083.
To CPFTHRPCSHPRLEGQEFCIKHILEDKNAPFKQCSYISTKNGKRCPNAAPKPEKKDGVSFCAEH belongs -0.421 ± 0.084; to CAFTHRPCSHPRLEGQEFCIKHILEDKNAPFKQCSYISTKNGKRCPNAAPKPEKKDDVSFCAEH, -0.138 ± 0.21.
Then CAFTHRPCSHPRLEGQEFCIKHILEDKNTPFKQCSYISTKNGKRCPNAAPKPEKKDGVSFCAEH, with -0.133 ± 0.084; and CAFTHRPCSHPRLEGQEFCIKHILEDKNWPFKQCSYISTKNGKRCPNAAPKPEKKDGVSFCAEH, with -0.422 ± 0.068.
For CAFTHRPCSHPRLEGQEFCIKHILEDKNAPFKQCSYISTKNGKRFPNAAPKPEKKDGVSFCAEH, the abundance fitness was -0.609 ± 0.096.
Then CAFTHRPCSHPRLEGQEFCIKHILEDKNAPFKQCCYISTKNGKRCPNAAPKPEKKDGVSFCAEH, with 0.003 ± 0.11.
To CAFTHRPCSYPRLEGQEFCIKHILEDKNAPFKQCSYISTKNGKRCPNAAPKPEKKDGVSFCAEH belongs -0.041 ± 0.079.
Then CAFTHRPCSLPRLEGQEFCIKHILEDKNAPFKQCSYISTKNGKRCPNAAPKPEKKDGVSFCAEH, with -0.103 ± 0.047.

Source of the values: the Human Domainome abundance scans (Beltran et al. 2025).
